# Data from PMC7736784.
# Where two headings read alike, the source gives them in different places.
# How the values were obtained:
# [1] = target: Sso7d-NanoLuc large fragment fusion
# [2] = target: Sso7d-NanoLuc large fragment fusion; remark: listed apart in the source
Kd [1] [µM],Kd [2] [µM],Substance
190,,NS2-Stoffel fusion (NanoLuc small fragment NS2)
,0.18,NS3
